Measurements from the RNAGym collection of RNA variant scans (doi:10.7554/elife.80360).

B1: Hammerhead Ribozyme (parent)
chain: ACCGGAUGUGCUUUCCGGUCUGAUGAGUCCGUGAGGACGAAACAG

Variants of: B1
Assay: self-cleavage, relative activity (ratio to wild type); higher = more cleavage; co-transcriptional

Compared with C15U C29G, C15U C29U is higher in self-cleavage: 0.802 for the first, 0.808 for the second.

First: C15U C30A
Second: C15U C30G
The self-cleavage of the first is higher: 0.696 for the first, 0.641 for the second.

Compared with C15U C30U, C15U C38A is lower in self-cleavage: 0.735 for the first, 0.677 for the second.

Going from C15U C38G to C15U C38U, the self-cleavage rises from 0.689 to 0.82.

Compared with C15U C43A, C15U C43G is lower in self-cleavage: 0.413 for the first, 0.305 for the second.

Compared with C15U C43U, C15U G17A is higher in self-cleavage: 0.483 for the first, 0.556 for the second.

Compared with C15U G17C, C15U G17U is higher in self-cleavage: 0.399 for the first, 0.476 for the second.

Compared with C15U G18A, C15U G18C is lower in self-cleavage: 0.554 for the first, 0.491 for the second.

First: C15U G18U
Second: C15U G22A
The self-cleavage of the first is higher: 0.643 for the first, 0.288 for the second.

Compared with C15U G22C, C15U G22U is higher in self-cleavage: 0.288 for the first, 0.386 for the second.

Going from C15U G25A to C15U G25C, the self-cleavage falls from 0.366 to 0.314.

First: C15U G25U
Second: C15U G27A
The self-cleavage of the first is lower: 0.314 for the first, 0.687 for the second.

First: C15U G27C
Second: C15U G27U
The self-cleavage of the first is higher: 0.749 for the first, 0.579 for the second.

Compared with C15U G31A, C15U G31C is higher in self-cleavage: 0.781 for the first, 0.967 for the second.

First: C15U G31U
Second: C15U G33A
The self-cleavage of the first is higher: 0.881 for the first, 0.875 for the second.

First: C15U G33C
Second: C15U G33U
The self-cleavage of the first is lower: 0.847 for the first, 1.02 for the second.

Going from C15U G35A to C15U G35C, the self-cleavage falls from 0.756 to 0.601.

Compared with C15U G35U, C15U G36A is higher in self-cleavage: 0.701 for the first, 0.734 for the second.

First: C15U G36C
Second: C15U G36U
The self-cleavage of the first is lower: 0.356 for the first, 0.521 for the second.

First: C15U G39A
Second: C15U G39C
The self-cleavage of the first is lower: 0.347 for the first, 0.407 for the second.

Going from C15U G39U to C15U G45A, the self-cleavage rises from 0.37 to 0.842.

Compared with C15U G45C, C15U G45U is higher in self-cleavage: 0.646 for the first, 0.822 for the second.

Compared with C15U U19A, C15U U19C is higher in self-cleavage: 0.344 for the first, 0.581 for the second.

Compared with C15U U19G, C15U U21A is higher in self-cleavage: 0.327 for the first, 0.595 for the second.

Going from C15U U21C to C15U U21G, the self-cleavage rises from 0.556 to 0.859.

Going from C15U U24A to C15U U24C, the self-cleavage falls from 0.853 to 0.812.

First: C15U U24G
Second: C15U U28A
The self-cleavage of the first is higher: 1.35 for the first, 0.516 for the second.

Compared with C15U U28C, C15U U28G is lower in self-cleavage: 0.803 for the first, 0.568 for the second.

First: C15U U32A
Second: C15U U32C
The self-cleavage of the first is higher: 1 for the first, 0.93 for the second.

First: C15U U32G
Second: C16A
The self-cleavage of the first is lower: 0.623 for the first, 1.21 for the second.

First: C16A A23C
Second: C16A A23G
The self-cleavage of the first is lower: 0.32 for the first, 0.357 for the second.

Compared with C16A A23U, C16A A26C is higher in self-cleavage: 0.305 for the first, 0.433 for the second.

Going from C16A A26G to C16A A26U, the self-cleavage rises from 0.37 to 0.59.

Compared with C16A A34C, C16A A34G is higher in self-cleavage: 0.799 for the first, 1.17 for the second.

Compared with C16A A34U, C16A A37C is higher in self-cleavage: 0.719 for the first, 0.898 for the second.

Going from C16A A37G to C16A A37U, the self-cleavage falls from 0.874 to 0.616.

Compared with C16A A40C, C16A A40G is lower in self-cleavage: 0.402 for the first, 0.297 for the second.

First: C16A A40U
Second: C16A A41C
The self-cleavage of the first is lower: 0.284 for the first, 0.404 for the second.

Compared with C16A A41G, C16A A41U is higher in self-cleavage: 0.352 for the first, 0.37 for the second.

Going from C16A A42C to C16A A42G, the self-cleavage falls from 0.399 to 0.296.

Going from C16A A42U to C16A A44C, the self-cleavage rises from 0.27 to 0.563.

First: C16A A44G
Second: C16A A44U
The self-cleavage of the first is higher: 1.35 for the first, 0.5 for the second.

Compared with C16A C20A, C16A C20G is lower in self-cleavage: 0.474 for the first, 0.316 for the second.

Compared with C16A C20U, C16A C29A is lower in self-cleavage: 0.567 for the first, 0.417 for the second.

Going from C16A C29G to C16A C29U, the self-cleavage rises from 0.566 to 1.06.

Going from C16A C30A to C16A C30G, the self-cleavage falls from 0.911 to 0.591.

Going from C16A C30U to C16A C38A, the self-cleavage falls from 1.32 to 0.631.

Compared with C16A C38G, C16A C38U is higher in self-cleavage: 0.542 for the first, 0.85 for the second.

First: C16A C43A
Second: C16A C43G
The self-cleavage of the first is higher: 0.304 for the first, 0.294 for the second.

Compared with C16A C43U, C16A G17A is lower in self-cleavage: 0.438 for the first, 0.374 for the second.

Compared with C16A G17C, C16A G17U is lower in self-cleavage: 0.386 for the first, 0.325 for the second.

Going from C16A G18A to C16A G18C, the self-cleavage falls from 0.351 to 0.341.

Compared with C16A G18U, C16A G22A is lower in self-cleavage: 0.525 for the first, 0.299 for the second.

Going from C16A G22C to C16A G22U, the self-cleavage rises from 0.294 to 0.329.

Compared with C16A G25A, C16A G25C is higher in self-cleavage: 0.347 for the first, 0.372 for the second.

Compared with C16A G25U, C16A G27A is higher in self-cleavage: 0.331 for the first, 0.715 for the second.

Going from C16A G27C to C16A G27U, the self-cleavage falls from 0.571 to 0.534.

Compared with C16A G31A, C16A G31C is lower in self-cleavage: 1.22 for the first, 1.04 for the second.

C16A G31U and C16A G33A are the same in self-cleavage: 1.29 for the first, 1.29 for the second.

First: C16A G33C
Second: C16A G33U
The self-cleavage of the first is lower: 1.24 for the first, 1.4 for the second.

First: C16A G35A
Second: C16A G35C
The self-cleavage of the first is higher: 0.727 for the first, 0.573 for the second.

Compared with C16A G35U, C16A G36A is lower in self-cleavage: 0.563 for the first, 0.523 for the second.

Going from C16A G36C to C16A G36U, the self-cleavage rises from 0.38 to 0.434.

Going from C16A G39A to C16A G39C, the self-cleavage falls from 0.356 to 0.337.

Going from C16A G39U to C16A G45A, the self-cleavage rises from 0.336 to 0.574.

Going from C16A G45C to C16A G45U, the self-cleavage rises from 0.501 to 0.563.

First: C16A U19A
Second: C16A U19C
The self-cleavage of the first is lower: 0.34 for the first, 0.39 for the second.

Compared with C16A U19G, C16A U21A is higher in self-cleavage: 0.295 for the first, 0.668 for the second.

Compared with C16A U21C, C16A U21G is higher in self-cleavage: 0.276 for the first, 0.316 for the second.

Going from C16A U24A to C16A U24C, the self-cleavage falls from 1.34 to 1.33.

Compared with C16A U24G, C16A U28A is lower in self-cleavage: 0.87 for the first, 0.434 for the second.

Compared with C16A U28C, C16A U28G is lower in self-cleavage: 0.722 for the first, 0.638 for the second.

Compared with C16A U32A, C16A U32C is higher in self-cleavage: 1.07 for the first, 1.09 for the second.

Going from C16A U32G to C16G, the self-cleavage rises from 0.899 to 1.02.

Going from C16G A23C to C16G A23G, the self-cleavage rises from 0.369 to 0.406.

Going from C16G A23U to C16G A26C, the self-cleavage rises from 0.295 to 0.305.

First: C16G A26G
Second: C16G A26U
The self-cleavage of the first is lower: 0.289 for the first, 0.433 for the second.

Going from C16G A34C to C16G A34G, the self-cleavage rises from 0.647 to 0.655.

Going from C16G A34U to C16G A37C, the self-cleavage rises from 0.709 to 0.737.

First: C16G A37G
Second: C16G A37U
The self-cleavage of the first is lower: 0.533 for the first, 0.606 for the second.

Compared with C16G A40C, C16G A40G is higher in self-cleavage: 0.372 for the first, 0.431 for the second.

First: C16G A40U
Second: C16G A41C
The self-cleavage of the first is lower: 0.321 for the first, 0.376 for the second.

First: C16G A41G
Second: C16G A41U
The self-cleavage of the first is higher: 0.398 for the first, 0.393 for the second.

Variant C16G A42C has a self-cleavage of 0.334.
